The source of these data is article PMC5988349 (Nature, 2018).

The data set “cryo-EM structure” deals with the molecule itself. Description: cryo-EM structure.
Data set [1] concerns the target β-actin subunit of pig dynactin (pig (endogenous in pig brain), UniProt Q6QAQ1 1-375). Description: cryo-EM structure.

B1: BICDR1 (BICD related-1), as used for the cryo-EM of TDR (natural protein)
chain: MSAFCLGLAGRASAPAEPDSACCMELPAGAGDAVRSPATAAALVSFPGGPGELELALEEELALLAAGERSSEPGEHPQAEPESPVEGHGPPLPPPPTQDPELLSVIRQKEKDLVLAARLGKALLERNQDMSRQYEQMHKELTDKLEHLEQEKHELRRRFENREGEWEGRVSELETDVKQLQDELERQQLHLREADREKTRAVQELSEQNQRLLDQLSRASEVERQLSMQVHALKEDFREKNSSTNQHIIRLESLQAEIKMLSDRKRELEHRLSATLEENDLLQGTVEELQDRVLILERQGHDKDLQLHQSQLELQEVRLSYRQLQGKVEELTEERSLQSSAATSTSLLSEIEQSMEAEELEQEREQLRLQLWEAYCQVRYLCSHLRGNDSADSAVSTDSSMDESSETSSAKDVPAGSLRTALNDLKRLIQSIVDGVEPTVTLLSVEMTALKEERDRLRVTSEDKEPKEQLQKAIRDRDEAIAKKNAVELELAKCKMDMMSLNSQLLDAIQQKLNLSQQLEAWQDDMHRVIDRQLMDTHLKEQSRPAAAAFPRGHGVGRGQEPSTADGKRLFSFFRKI
As to B1, the binding result in “cryo-EM structure” is “binds”.

B2: dynein heavy chain (HC) residues 1-1455 (domain or fragment)
chain: MSEPGGGGGEDGSAGLEVSAVQNVADVSVLQKHLRKLVPLLLEDGGEAPAALEAALEEKSALEQMRKFLSDPQVHTVLVERSTLKEDVGDEGEEEKEFISYNINIDIHYGVKSNSLAFIKRTPVIDADKPVSSQLRVLTLSEDSPYETLHSFISNAVAPFFKSYIRESGKADRDGDKMAPSVEKKIAELEMGLLHLQQNIEIPEISLPIHPMITNVAKQCYERGEKPKVTDFGDKVEDPTFLNQLQSGVNRWIREIQKVTKLDRDPASGTALQEISFWLNLERALYRIQEKRESPEVLLTLDILKHGKRFHATVSFDTDTGLKQALETVNDYNPLMKDFPLNDLLSATELDKIRQALVAIFTHLRKIRNTKYPIQRALRLVEAISRDLSSQLLKVLGTRKLMHVAYEEFEKVMVACFEVFQTWDDEYEKLQVLLRDIVKRKREENLKMVWRINPAHRKLQARLDQMRKFRRQHEQLRAVIVRVLRPQVTAVAQQNQGEVPEPQDMKVAEVLFDAADANAIEEVNLAYENVKEVDGLDVSKEGTEAWEAAMKRYDERIDRVETRITARLRDQLGTAKNANEMFRIFSRFNALFVRPHIRGAIREYQTQLIQRVKDDIESLHDKFKVQYPQSQACKMSHVRDLPPVSGSIIWAKQIDRQLTAYMKRVEDVLGKGWENHVEGQKLKQDGDSFRMKLNTQEIFDDWARKVQQRNLGVSGRIFTIESTRVRGRTGNVLKLKVNFLPEIITLSKEVRNLKWLGFRVPLAIVNKAHQANQLYPFAISLIESVRTYERTCEKVEERNTISLLVAGLKKEVQALIAEGIALVWESYKLDPYVQRLAETVFNFQEKVDDLLIIEEKIDLEVRSLETCMYDHKTFSEILNRVQKAVDDLNLHSYSNLPIWVNKLDMEIERILGVRLQAGLRAWTQVLLGQAEDKAEVDMDTDAPQVSHKPGGEPKIKNVVHELRITNQVIYLNPPIEECRYKLYQEMFAWKMVVLSLPRIQSQRYQVGVHYELTEEEKFYRNALTRMPDGPVALEESYSAVMGIVSEVEQYVKVWLQYQCLWDMQAENIYNRLGEDLNKWQALLVQIRKARGTFDNAETKKEFGPVVIDYGKVQSKVNLKYDSWHKEVLSKFGQMLGSNMTEFHSQISKSRQELEQHSVDTASTSDAVTFITYVQSLKRKIKQFEKQVELYRNGQRLLEKQRFQFPPSWLYIDNIEGEWGAFNDIMRRKDSAIQQQVANLQMKIVQEDRAVESRTTDLLTDWEKTKPVTGNLRPEEALQALTIYEGKFGRLKDDREKCAKAKEALELTDTGLLSGSEERVQVALEELQDLKGVWSELSKVWEQIDQMKEQPWVSVQPRKLRQNLDALLNQLKSFPARLRQYASYEFVQRLLKGYMKINMLVIELKSEALKDRHWKQLMKRLHVNWVVSELTLGQIWDVDLQKNEAIVKDVLLVAQG
Consider B2, for which the binding result (in data set [1]; in “cryo-EM structure”) was “binds” each time.
